This assay addresses SFTSV Gn head domain (Severe fever with thrombocytopenia …). The experiment in a line: BLI. On the technique in general: BLI is a label-free optical method that tracks binding on a fibre tip over time.

B1: c40C10 (human IgG1 antibody with the heavy and light chain variable regions of mAb 40C10) (antibody, V domains shown)
VH: EVQLQQSGAELVKPGASVKLSCKASGYTFTSHYMYWVKQRPGQGPEWIGEINPTNGGTKFNEKFKSKATLTVDKSSSTAYIQLSSLTSEDSAVYYCSSSGYDYDGRAYFDYWGQGTTLTVSS
VL: DVVMTQTPKFLLVSAGDRVTITCKASQSVSNDVAWYQQKPGQSPKLLIYYASYRYTGVPDRFTGSGYGTDFTFTISAVQAEDLAVYFCQQNYNSPYTFGGGTKLEIK
Usually Kd stands for the equilibrium constant for the complex coming apart. Read a low Kd as a tighter complex. In the case of B1, the Kd was 0.582 nM.

Source of the values: PMC11423973 (2024).
